First the molecules themselves.
B1: SLC6A17 (parent)
chain: KAVEEELDAEDRPAWNSKLQYILA
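Note: lentivirally expressed fusions sorted by FACS into six bins by GFP to DsRed ratio, PSI derived from sequencing read proportions per bin multiplied by bin number.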

The series covers variants of B1. The experiment in a line: protein stability index of a GFP-peptide fusion (GPS, HEK-293T) (PSI 1-6); higher = more stable. The settings on record: c terminus: a fixed tail appended.
With KAVEEELDAEDTPAWNSKLQYILA [R12T], the protein stability index came to 3.82.

For KAVEEELDAEDSPAWNSKLQYILA [R12S], the protein stability index came to 3.4.

In the case of KAVEEELDAEDWPAWNSKLQYILA [R12W], the protein stability index turned out to be 2.19.

Consider KAVEEELDAEDQPAWNSKLQYILA [R12Q], for which the protein stability index was determined as 3.15.

Turning to KAVEEELDAEDPPAWNSKLQYILA [R12P], the protein stability index is 2.44.

With KAVEEELDAEDVPAWNSKLQYILA [R12V], the protein stability index amounted to 2.54.

For the variant KAVEEELDAEDGPAWNSKLQYILA [R12G], the protein stability index was determined as 2.32.

Consider KAVEEELDAEDMPAWNSKLQYILA [R12M], for which the protein stability index amounted to 2.19.

Consider KAVEEELDAEDCPAWNSKLQYILA [R12C], for which the protein stability index is 2.8.

KAVEEELDAEDLPAWNSKLQYILA [R12L]: the protein stability index came to 2.45.

Turning to KAVEEELDAEDRTAWNSKLQYILA [P13T], the protein stability index is 3.06.

For KAVEEELDAEDRCAWNSKLQYILA [P13C], the protein stability index worked out at 2.28.

As for KAVEEELDAEDRKAWNSKLQYILA [P13K], the protein stability index is 2.57.

As to KAVEEELDAEDRIAWNSKLQYILA [P13I], the protein stability index came out at 1.42.

On to KAVEEELDAEDRWAWNSKLQYILA [P13W], for which the protein stability index stood at 2.88.

Turning to KAVEEELDAEDREAWNSKLQYILA [P13E], the protein stability index was found to be 2.41.

For the variant KAVEEELDAEDRAAWNSKLQYILA [P13A], the protein stability index was found to be 1.54.

KAVEEELDAEDRGAWNSKLQYILA [P13G]: the protein stability index was found to be 2.71.

As for KAVEEELDAEDRPAWYSKLQYILA [N16Y], the protein stability index was 2.09.

KAVEEELDAEDRPAWASKLQYILA [N16A]: the protein stability index is 2.25.

Turning to KAVEEELDAEDRPAWQSKLQYILA [N16Q], the protein stability index worked out at 2.1.

For the variant KAVEEELDAEDRPAWLSKLQYILA [N16L], the protein stability index turned out to be 2.06.

On to KAVEEELDAEDRPAWCSKLQYILA [N16C], for which the protein stability index was 2.08.

For KAVEEELDAEDRPAWPSKLQYILA [N16P], the protein stability index came to 2.75.

Take KAVEEELDAEDRPAWFSKLQYILA [N16F]: the protein stability index came out at 2.14.

As to KAVEEELDAEDRPAWRSKLQYILA [N16R], the protein stability index is 2.75.

Take KAVEEELDAEDRPAWSSKLQYILA [N16S]: the protein stability index came to 3.01.

In the case of KAVEEELDATDRPAWNSKLQYILA [E10T], the protein stability index was 2.44.

Turning to KAVEEELDAVDRPAWNSKLQYILA [E10V], the protein stability index worked out at 1.9.

In the case of KAVEEELDANDRPAWNSKLQYILA [E10N], the protein stability index is 2.57.

As to KAVEEELDAIDRPAWNSKLQYILA [E10I], the protein stability index was 1.86.

Take KAVEEELDAFDRPAWNSKLQYILA [E10F]: the protein stability index was 2.63.

Regarding KAVEEELDAKDRPAWNSKLQYILA [E10K], the protein stability index amounted to 2.5.

KAVEEELDAMDRPAWNSKLQYILA [E10M]: the protein stability index was 1.47.

On to KAVEEELMAEDRPAWNSKLQYILA [D8M], for which the protein stability index came out at 1.92.

As for KAVEEELLAEDRPAWNSKLQYILA [D8L], the protein stability index was 1.77.

With KAVEEELWAEDRPAWNSKLQYILA [D8W], the protein stability index was 1.83.

For KAVEEELQAEDRPAWNSKLQYILA [D8Q], the protein stability index amounted to 2.25.

As to KAVEEELTAEDRPAWNSKLQYILA [D8T], the protein stability index was determined as 2.57.

Turning to KAVEEELSAEDRPAWNSKLQYILA [D8S], the protein stability index was found to be 3.15.

Take KAVEEELDAEDRPAWNSKLQFILA [Y21F]: the protein stability index came out at 2.9.

As to KAVEEELDAEDRPAWNSKLQDILA [Y21D], the protein stability index amounted to 3.92.

In the case of KAVEEELDAEDRPAWNSKLQSILA [Y21S], the protein stability index came to 3.92.

On to KAVEEELDAEDRPAWNSKLQPILA [Y21P], for which the protein stability index came to 4.58.

For the variant KAVEEELDAEDRPAWNSKLQIILA [Y21I], the protein stability index was determined as 3.09.

With KEVEEELDAEDRPAWNSKLQYILA [A2E], the protein stability index worked out at 1.96.

KSVEEELDAEDRPAWNSKLQYILA [A2S]: the protein stability index worked out at 2.81.

For KNVEEELDAEDRPAWNSKLQYILA [A2N], the protein stability index was 2.61.

Take KTVEEELDAEDRPAWNSKLQYILA [A2T]: the protein stability index was 1.83.

As for KKVEEELDAEDRPAWNSKLQYILA [A2K], the protein stability index is 2.46.

As for KPVEEELDAEDRPAWNSKLQYILA [A2P], the protein stability index stood at 2.68.

In the case of KFVEEELDAEDRPAWNSKLQYILA [A2F], the protein stability index was determined as 1.93.

On to KRVEEELDAEDRPAWNSKLQYILA [A2R], for which the protein stability index turned out to be 2.28.

In the case of KVVEEELDAEDRPAWNSKLQYILA [A2V], the protein stability index is 2.23.

Turning to KGVEEELDAEDRPAWNSKLQYILA [A2G], the protein stability index was 2.81.

Consider KAVEKELDAEDRPAWNSKLQYILA [E5K], for which the protein stability index is 2.08.

As for KAVEGELDAEDRPAWNSKLQYILA [E5G], the protein stability index was determined as 1.89.

With KAVEHELDAEDRPAWNSKLQYILA [E5H], the protein stability index is 2.32.

As to KAVEQELDAEDRPAWNSKLQYILA [E5Q], the protein stability index worked out at 1.96.

With KAVERELDAEDRPAWNSKLQYILA [E5R], the protein stability index was 2.04.

KAVEFELDAEDRPAWNSKLQYILA [E5F]: the protein stability index amounted to 1.91.

As for KAVEDELDAEDRPAWNSKLQYILA [E5D], the protein stability index was determined as 1.75.

Consider KAVEEELDAEDRPAWNSKVQYILA [L19V], for which the protein stability index came to 2.28.

With KAVEEELDAEDRPAWNSKTQYILA [L19T], the protein stability index is 3.83.

As for KAVEEELDAEDRPAWNSKFQYILA [L19F], the protein stability index was 2.96.

Consider KAVEEELDAEDRPAWNSKKQYILA [L19K], for which the protein stability index is 3.99.

For the variant KAVEEELDAEDRPAWNSKAQYILA [L19A], the protein stability index is 3.8.

Turning to KAVEEELDAEDRPAWNSKYQYILA [L19Y], the protein stability index turned out to be 2.52.

As for KAVEEELDAEDRPAWNSKNQYILA [L19N], the protein stability index came to 4.2.

On to KAVEEELDAEIRPAWNSKLQYILA [D11I], for which the protein stability index worked out at 2.54.

As to KAVEEELDAEMRPAWNSKLQYILA [D11M], the protein stability index is 1.69.

As for KAVEEELDAEYRPAWNSKLQYILA [D11Y], the protein stability index turned out to be 1.42.

KAVEEELDAEGRPAWNSKLQYILA [D11G]: the protein stability index amounted to 3.55.

KAVEEELDAEQRPAWNSKLQYILA [D11Q]: the protein stability index amounted to 2.12.

Consider KAVEEELDAECRPAWNSKLQYILA [D11C], for which the protein stability index stood at 1.99.

As to KAVEEELDAEDRPAWNSKLQYICA [L23C], the protein stability index worked out at 3.59.

KAVEEELDAEDRPAWNSKLQYIWA [L23W]: the protein stability index turned out to be 3.19.

Turning to KAVEEELDAEDRPAWNSKLQYIIA [L23I], the protein stability index came out at 2.64.

Turning to KAVEEELDAEDRPAWNSKLQYIDA [L23D], the protein stability index was determined as 4.9.

With KAVEEELDAEDRPAWNSKLQYIGA [L23G], the protein stability index worked out at 3.99.

In the case of KAVEEELDAEDRPAWNSKLQYITA [L23T], the protein stability index was 3.91.

Take KAVEEELDAEDRPAWNSKLQYISA [L23S]: the protein stability index amounted to 4.23.

As to KAVFEELDAEDRPAWNSKLQYILA [E4F], the protein stability index was 1.43.

As to KAVAEELDAEDRPAWNSKLQYILA [E4A], the protein stability index was found to be 2.79.

As for KAVPEELDAEDRPAWNSKLQYILA [E4P], the protein stability index turned out to be 2.54.

Turning to KAVLEELDAEDRPAWNSKLQYILA [E4L], the protein stability index is 3.26.

Regarding KAVNEELDAEDRPAWNSKLQYILA [E4N], the protein stability index is 2.63.

For KAVHEELDAEDRPAWNSKLQYILA [E4H], the protein stability index stood at 2.24.

Regarding KAVMEELDAEDRPAWNSKLQYILA [E4M], the protein stability index is 1.78.

For KAVGEELDAEDRPAWNSKLQYILA [E4G], the protein stability index amounted to 2.12.

For the variant KAVEEPLDAEDRPAWNSKLQYILA [E6P], the protein stability index came to 2.53.

On to KAVEENLDAEDRPAWNSKLQYILA [E6N], for which the protein stability index stood at 2.45.

For the variant KAVEEQLDAEDRPAWNSKLQYILA [E6Q], the protein stability index turned out to be 2.68.

With KAVEEWLDAEDRPAWNSKLQYILA [E6W], the protein stability index is 1.16.

As for KAVEEGLDAEDRPAWNSKLQYILA [E6G], the protein stability index stood at 2.27.

The values are drawn from the supplement of paper PMC10567573.
